These results are taken from the supplement of paper PMC9170038.

The test system of the data set is MS2 coat protein. The experiment in a line: apparent KD of MS2 coat protein; designed switch direction (-1 OFF switch, 1 ON switch): -1; higher = weaker reporter binding. Summed up:
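Designed RNA switches with common flanks were transcribed on Illumina chips by stalled E. coli RNA polymerase and titrated with SNAP-549-labelled MS2 coat protein, from 0.7 or 1.5 nM doubling to 3 µM, in Tris-HCl pH 7.5 buffer with KCl, MgCl2, BSA, DTT, tRNA and Tween-20. Steps lasted 0.8–1.5 h (lowest) to 10–20 min (highest). Titrations ran without input, with 200 uM small-molecule ligand, or with an oligonucleotide input. Normalised cluster fluorescence was curve-fitted, and apparent KD is the per-design median over clusters.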

The mark [1] stands for this setting: Eterna round: R95, input ligand: FMN 200 uM.
Where [2] appears, read: Eterna round: R95, input ligand: microRNA oligo, concentration not stated.
[3] abbreviates: Eterna round: R95, input ligand: none.
Setting [4] is: input ligand: microRNA oligo, concentration not stated.

Regarding “GUAGAGUAAGGAUAUCAUGAAUAGGAUAGAAUGGUUAGAAAUGAGAAGGUACAUGAGGAUCACCCAUGUAAUGU [Excluse me!!!! 12 - Jieux - Exclusion 4] (puzzle: Exclusion 4)”, the “apparent KD of MS2 coat protein” value runs as follows: under setting [1], 20.5 nM; under setting [2], 21.6 nM; under setting [3], 17.1 nM.
With “GUAGAGUAAGGAUAUGUUGAAUAGGAUAGAAUGGUUAGAAAGCAGAAGGUACAUGAGGAUCACCCAUGUAAUGU [Excluse me!!!! 14 - Jieux - Exclusion 4] (puzzle: Exclusion 4)”, the “apparent KD of MS2 coat protein” value under setting [2] worked out at 21.4 nM.
Turning to “GUAGAGUAAGGAUAUUGUGAAUAGGAUAGAAUGGUUAGAAACGAGAAGGUACAUGAGGAUCACCCAUGUAAUGU [Excluse me!!!! 22 - Jieux - Exclusion 4] (puzzle: Exclusion 4)”, the “apparent KD of MS2 coat protein” value turned out to be 24.1 nM under setting [1], 22.1 nM under setting [2] and 24.4 nM under setting [3].
“GUAGAGUCAGGAUAUACAAGAUCGAUAGAUCAAAGGUCCAUACAUGAGGAUCACCCAUGUAGAAGGGACUCUAC [Mat - Exclusion 2 - Eli Mod - D9] (Eterna round: R97, puzzle: Exclusion 2)”: the “apparent KD of MS2 coat protein” value is 37.2 nM (input ligand: FMN 200 uM) and 17.9 nM (input ligand: none).
In the same order, the values of “GUAGAGUCAGGAUAUACGAAUAGAUCGAUAGAUCAAUCCAUACAUGAGGAUCACCCAUGUAGAAGGGACUCUAC [Mat - Exclusion 2 - Eli Mod - D15] (Eterna round: R97, puzzle: Exclusion 2)” are 26.2 nM and 18.8 nM.
For “GUAGCUUCGGCUACUACAAGCUUUUUGCUCGUCUUAUUAACAUGAGGAUCACCCAUGUUAAUGAGACCUCAUGUAUU [Sensor v3 - turn-off variant 2 - 6] (puzzle: Sensor v3, turn-off variant 2)”, the “apparent KD of MS2 coat protein” value came out at 13.4 nM under setting [1], 17 nM under setting [2] and 10.9 nM under setting [3].
On to “GUAGUGUGAGGAUAUGGUAAAGAUAAGAUGAUGAAAGAACUCCAGAAGGCACAUGAGGAUCACCCAUGUAGAUU [Mat - Exclusion 4 - Mod of JL - D26] (puzzle: Exclusion 4)”, for which the “apparent KD of MS2 coat protein” value runs as follows: under setting [1], 49.8 nM; under setting [2], 19.7 nM; under setting [3], 26 nM.
For “GUAUAUAGUGUGAGGAUAUGCUGGUCCUUGGAUCAGCAGAAGGCACAUGAGGAUCACCCAUGUAGUUUAUUAUG [Mat - Exclusion 4 - JL Mod - D8] (puzzle: Brourd's mod of Exclusion 4)”, the “apparent KD of MS2 coat protein” value under setting [2] came out at 20 nM.
For “GUAUGUCUAGGAUAUAUAUUGGAAUGUCCGUGUCCUAGCCAACAUGAGGAUCACCCAUGUAGAAGGAGAUGUGU [Eternabot (L1) Solution 97] (Eterna round: R97, puzzle: Exclusion 2)”, the “apparent KD of MS2 coat protein” value turned out to be 43.5 nM (input ligand: FMN 200 uM) and 52.8 nM (input ligand: none).
For the sequence “GUCACAUGGACAUAGGAUCACAUGAGGAUCACCCAUGUGACUAACAAGCUUUUUGCUCGUCUUAUGUCCAUGUGAAA [Stov1/15-A2] (Eterna round: R97, puzzle: Sensor, turn-off variant 1)”, the “apparent KD of MS2 coat protein” value runs as follows: (input ligand: FMN 200 uM) 14.1 nM; (input ligand: none) 13.2 nM.
In the case of “GUCACAUGGACAUAGGAUCACAUGAGGAUCACCCAUGUGACUAACAAGCUUUUUGUUCGUCUUAUGUCUAUGUGAAG [Stov1/16-B3] (Eterna round: R97, puzzle: Sensor, turn-off variant 1)”, the “apparent KD of MS2 coat protein” value was 13.1 nM (input ligand: FMN 200 uM) and 16.9 nM (input ligand: none).
“GUCAGACGAGGAUAUAGAUUUAGAUACAUGAGGAUCACCCAUGUAUACAUGUAUUUAGAUUUAGAAGGCGUCUGAC [E5/14-A4] (Eterna round: R97, puzzle: Exclusion 5)”: the “apparent KD of MS2 coat protein” value is 492 nM (input ligand: FMN 200 uM) and 1360 nM (input ligand: none).
With “GUCAGCUCGUGAGGAUAUACAUCACUGCUUCGGCAGUGUAUUAAGAUCACAUGAGGAUCACCCAUGUAGAAGGCACGAGCUGAU [ENG2/2-A2] (Eterna round: R96, puzzle: Exclusion NG 2)”, the “apparent KD of MS2 coat protein” value (input ligand: FMN 200 uM) worked out at 1020 nM, the “apparent KD of MS2 coat protein” value under setting [4] stood at 27.6 nM and the “apparent KD of MS2 coat protein” value (input ligand: none) amounted to 39 nM.
Consider “GUCAGCUCGUGAGGAUAUGAACAUGAGGAUCACCCAUGUAAGAUCAAGCUGCUUCGGCAGCAAGUUCAGAAGGCACGAGCUGAC [ENG2/10-A1] (Eterna round: R96, puzzle: Exclusion NG 2)”, for which the “apparent KD of MS2 coat protein” value reads like this: (input ligand: FMN 200 uM) 221 nM; under setting [4], 85.8 nM; (input ligand: none) 134 nM.
With “GUCAUCAAACAUGGGAUAAACAUGAGGAUCACCCAUGUUAACAAGUUUUUUGCUCGUCUUAUAAUAAGUUUGAUGAC [Antenna 11 - Jieux - Sensor, turn-off variant 1] (Eterna round: R97, puzzle: Sensor, turn-off variant 1)”, the “apparent KD of MS2 coat protein” value is, setting by setting: (input ligand: FMN 200 uM) 12.4 nM; (input ligand: none) 13.5 nM.
In the case of “GUCAUCACACAUGGGAUCAACAUGAGGAUCACCCAUGUUGUCAAGUUUUUUGCUCGUCUUAUAAUACGUUUGAUGAG [Mod-Jxd] (Eterna round: R97, puzzle: Sensor, turn-off variant 1)”, the “apparent KD of MS2 coat protein” value runs as follows: (input ligand: FMN 200 uM) 135 nM; (input ligand: none) 154 nM.
Take “GUCCAGUUAGGAUAUCAAUGCCACAACAUGAGGAUCACCCAUGUUUGGGUCCCUCACCAAUGAGAAGGAACGGGAC [Esteenedso] (puzzle: Exclusion 5)”: the “apparent KD of MS2 coat protein” value under setting [2] is 32.1 nM.
For the sequence “GUCCUGGCUUUUCACAGGCACAUGAGGAUCACCCAUGUCGUGGGUAGAUCCCUCCCUGGGAAAUCUGCUCGUCUUAU [Cac Sensor turn off v1 sub12] (Eterna round: R97, puzzle: Sensor, turn-off variant 1)”, the “apparent KD of MS2 coat protein” value by setting is: (input ligand: FMN 200 uM) 78.9 nM; (input ligand: none) 84.6 nM.
For “GUCGAGUGAGGAUAUGGUGAGUAGUGCCUGAGCGCUGCUCACCAGAAGGCACAUGAGGAUCACCCAUGUAUGUC [JL-ex4-2.04 denovo] (puzzle: Exclusion 4)”, the “apparent KD of MS2 coat protein” value under setting [2] is 12.3 nM.
Turning to “GUCGAUGUCAAAGGAUAUCAGCACGUUUAGUGCUGAGAAGGUUGAACAUGAGGAUCACCCAUGUAGAUCAUUAACGACUUAAUU [ENG1/10-A1] (Eterna round: R96, puzzle: Exclusion NG 1)”, the “apparent KD of MS2 coat protein” value is 44.5 nM (input ligand: FMN 200 uM), 15.7 nM under setting [4] and 20.7 nM (input ligand: none).
On to “GUCGCUAGAGGAUAUACAAUGGUAUAUGAUCCUAGUGACAUACAUGAGGAUCACCCAUGUAGAAGGCUAGUAUU [Exclusion 2 - 8] (puzzle: Exclusion 2)”, for which the “apparent KD of MS2 coat protein” value under setting [2] turned out to be 23.7 nM.
Take “GUCGGGCAAGGAUAUGUAGCACUCUACAUGAGGAUCACCCAUGUGAGCCUGCAUGGUGCGACAGAAGGUGCAAAAG [Enencear] (Eterna round: R97, puzzle: Exclusion 5)”: the “apparent KD of MS2 coat protein” value by setting is: (input ligand: FMN 200 uM) 330 nM; (input ligand: none) 361 nM.
For “GUCGUGUAAGGAUAUGCAUCGAGGUAGCGAAUGUUGCAGGUGUAGAAGGUACAUGAGGAUCACCCAUGUAAUGU [Exclusion 4 - An extended Mod of Jieux] (puzzle: Exclusion 4)”, the “apparent KD of MS2 coat protein” value under setting [2] is 20.2 nM.
As to “GUCUAGCGAGGAUAUUGCAGACGAAACAUGAGGAUCACCCAUGUGGCCUUGUGCCGUGUGCAAGAAGGCGCGAGGC [Gelelaor] (Eterna round: R97, puzzle: Exclusion 5)”, the “apparent KD of MS2 coat protein” value worked out at 297 nM (input ligand: FMN 200 uM) and 268 nM (input ligand: none).
For the sequence “GUCUUACAUGAGGAUCACCCAUGUGAGGAUAUGGAUUCGCUGGCCGUAGCCAGUGGAUCCAGAAGGCGCAUGAU [JL-ex1-4.04] (Eterna round: R97, puzzle: Exclusion 1)”, the “apparent KD of MS2 coat protein” value was 50.9 nM (input ligand: FMN 200 uM) and 39.2 nM (input ligand: none).
On to “GUCUUACAUGAGGAUCACCCAUGUGAGGAUAUGGAUUCGCUGGCCGUAGCCAGUGGAUCCAGAAGGCGCGUGAU [JL-ex1-4.20] (Eterna round: R97, puzzle: Exclusion 1)”, for which the “apparent KD of MS2 coat protein” value runs as follows: (input ligand: FMN 200 uM) 67 nM; (input ligand: none) 62.5 nM.
For “GUGAAGUGAGGAUAUACGAGAGAGGCUGAACCGGACGAGAAGUAGAAGGCACAUGAGGAUCACCCAUGUAAGGA [JR_Exclu4_Sub022] (puzzle: Exclusion 4)”, the “apparent KD of MS2 coat protein” value under setting [2] is 34.4 nM.
Consider “GUGAGAUAGUUAGUGGACGACAUGAGGAUCACCCAUGUGAGGGAAAUGUUAAGGAGAAAGCUUUUUGCUCGUCUUUA [JR_SV3TOV1_Sub035] (puzzle: Sensor v3, turn-off variant 1)”, for which the “apparent KD of MS2 coat protein” value by setting is: under setting [1], 98.9 nM; under setting [2], 70.4 nM; under setting [3], 180 nM.
As for “GUGAGCAGACGGAGAUCCAACAUGAGGAUCACCCAUGUCUCACUAGCUUUUUGCUCGUCUUAUCCUCCUCUGUUCAC [Elimod 23 - Jieux - Sensor, turn-off variant 1] (Eterna round: R97, puzzle: Sensor, turn-off variant 1)”, the “apparent KD of MS2 coat protein” value (input ligand: FMN 200 uM) was 16 nM and the “apparent KD of MS2 coat protein” value (input ligand: none) was found to be 16.2 nM.
As for “GUGAUCUAUCAUGGGAUAAACAUGAGGAUCACCCAUGUAAACAAGUUUUUUGCUCGUCUUAUAAUAAGAUAGAUCAC [Antenna 2 - Jieux - Sensor, turn-off variant 1] (Eterna round: R97, puzzle: Sensor, turn-off variant 1)”, the “apparent KD of MS2 coat protein” value (input ligand: FMN 200 uM) was found to be 21.1 nM and the “apparent KD of MS2 coat protein” value (input ligand: none) amounted to 20.9 nM.
Consider “GUGGAGUAAGGAUAUACAUGAGGAUCACCCAUGUGAGGGUAUGAGAAGGGAAUGAGAGGUAGAAGGUACGAGGG [JR_Exclu3_Sub070] (puzzle: Exclusion 3)”, for which the “apparent KD of MS2 coat protein” value under setting [2] was 111 nM.
